These are literature values, as cited in article PMC4616163, “Inverse relationship between chitobiase and transglycosylation activities of chitinase-D from Serratia proteamaculans revealed by mutational and biophysical analyses” (Scientific Reports, 2015).

Details of the data set: method as in PMID 11160110, PMID 18368288. Particulars: other chitinases, literature.

B1: SmChiA: mesophilic chitinase (protein, UniProt P07254 24-563, looked up)
Chitinase A: AAPGKPTIAWGNTKFAIVEVDQAATAYNNLVKVKNAADVSVSWNLWNGDAGTTAKILLNGKEAWSGPSTGSSGTANFKVNKGGRYQMQVALCNADGCTASDATEIVVADTDGSHLAPLKEPLLEKNKPYKQNSGKVVGSYFVEWGVYGRNFTVDKIPAQNLTHLLYGFIPICGGNGINDSLKEIEGSFQALQRSCQGREDFKVSIHDPFAALQKAQKGVTAWDDPYKGNFGQLMALKQAHPDLKILPSIGGWTLSDPFFFMGDKVKRDRFVGSVKEFLQTWKFFDGVDIDWEFPGGKGANPNLGSPQDGETYVLLMKELRAMLDQLSAETGRKYELTSAISAGKDKIDKVAYNVAQNSMDHIFLMSYDFYGPFDLKNLGHQTALNAPAWKPDTAYTTVNGVNALLAQGVKPGKVVVGTAMYGRGWTGVNGYQNNIPFTGTATGPVKGTWKNGIVDYRQIAGQFMSGEWQYTYDATAEAPYVFKPSTGDLITFDDARSVQAKGKYVLDKQLGGLFSWEIDADNGDILNSMNASLGNSAGVQ
B1: the Tm was 64.2 °C.
